In general, Km refers to the concentration of substrate that gives half-maximal velocity. The term kcat denotes the number of substrate molecules converted per active site and unit of time at saturation.

Series [1] in a line: Coupled enzymatic assay, conversion of 5′-FDA into FAld. The format is biochemical. The settings on record: with isomerase^S. cattleya and aldolase^S. coelicolor. How it is done:
Coupled isomerase and aldolase activity was monitored by following the consumption of DHAP, through NADH reduction at 340 nm (ε=6220 M^−1 cm^−1) via the activity of a Glycerol-3-Phosphate Dehydrogenase (GPDH, Sigma Aldrich). 5′-FDRP was produced by incubating chemically synthetized 5′-FDA (Calero et al. 2020) at 7.43 mM with 0.5 U Nucleoside Phosphorylase (PNP1, Sigma Aldrich) in 10 mM Tris buffer, for 16 h at 30° C. The assay was carried in 200 μl total volume at 30° C. over a time course of 3 hours. Reaction conditions were 50 mM Tris-HCl Buffer pH7.5, 200 μM NADH, 200 μM 5′-FDRP, 1 U GPDH and 10 μg purified of each enzyme. The reduction of NADH was followed at absorbance 340 nm in a Microtiter Plate reader (BioTek, Elx808).
We used this enzymatic assay with cell-free extracts of cultures of P. putida KT2440::FRS-T7RNAP expressing an isomerase and an aldolase from S. cattleya (isoSc, isomerase^S. cattleya) and S. coelicolor (aldSc, aldolase^S. coelicolor), respectively, that have been previously shown that are able to use fluorinated intermediates (Deng et al., 2008), as well as both an isomerase (isoBt, isomerase^B. thuringiensis) and an aldolase (aldBt) from B. thuringiensis that have been previously described to perform the same reaction with the non-fluorinated metabolites (Beaudoin 2018). […]

The conditions of series [2]: Eustaquio et al., 2008; cited from earlier work.
The nature of series [3]: 96-well end-point (1 h) fluorinase activity assay. The format is biochemical. Conditions: purified enzymes, increasing SAM concentrations, 5′-FDA by HPLC. How it is done:
(§1) 96-well activity assays were carried out in 150 μL reactions containing 50 mM HEPES pH 7.8, 75 mM KF, ˜1 μM fluorinase (considering the theoretical molecular mass), and 10, 25, 50, 100, 250, or 500 μM SAM (New England Biolabs). 96-well PCR plates were sealed and incubated for 1 h at 37° C., 5 min at 95° C., and cooled to 10° C. in a thermocycler (Bio-Rad). The plates were then centrifuged for 30 min at 2,500×g and 120 μL of supernatants were transferred to round-bottom 96-well plates (Thermo Scientific), which were sealed with a silicone lid for HPLC analysis. Transhalogenation reactions were carried out in the same way, but using increasing concentrations of 5′-CIDA (5′-chloro-5′-deoxyadenosine) in the presence of 1 mM L-Met.
(§2) 5′-FDA was quantified following absorbance at 230 nm using a Zorbax C18 column (3.5 μm 4.6×100 mm, Agilent) connected to a HPLC system (Dionex Ultimate 3000, ThermoFisher) with the following gradient (1 mL/min flow rate): 5-12% solvent B in 1.5 min, 12% solvent B for 1 min, 12-30% solvent B in 2 min, 30-70% B in 1.5 min (solvent A: 0.05% acetic acid in water; solvent B: acetonitrile). A six-point calibration curve (R2>0.99) was prepared with 0.5-50 μM 5′-FDA, which was chemically synthesized as previously described (Calero et al., 2020).

Series [4] is described as follows: Steady-state fluorination kinetics of purified fluorinases (5′-FDA by HPLC). The settings on record: 50 mM HEPES, pH 7.8, 75 mM KF, varying SAM, 37° C., triplicate. It counts as biochemical. How it is done:
as §1
Steady-state kinetics were performed in the same conditions with slight variations. Triplicate reactions (600 μL final volume) were prepared in 1.5-mL tubes and incubated for 5 min at 37° C. before addition of SAM (1.5625-800 μM), after which 90 μL aliquots were removed at different time-points (2, 5, 10, 15, 20 and 30 minutes), boiled for 5 min at 95° C., and placed on ice. Samples were centrifuged at maximum speed for 10 min at 4° C. before being transferred to 96-well plates for 5′-FDA quantitation by HPLC analysis. Product formation rates for the different substrate concentrations were calculated by least squares linear regression with at least three time-points and fitted to the Michaelis-Menten equation using the Origin software (OriginLab Corporation).
as §2

A short description of series [5]: Chlorination reaction, KF replaced by KCl. The format is biochemical. An excerpt: Since FlA^PtaU1 was predicted to be a chlorinase, we evaluated whether it was also active towards SN2-dependent addition of Cl^− onto SAM. […] Previous studies have shown that FlA^Scat can also catalyze the chlorination reaction (Deng et al., 2006). However, this feature requires the simultaneous removal of L-Met or 5′-CIDA, the reaction products, since the reverse dehalogenation reaction is favored. We could observe transhalogenation on 5′-CIDA (i.e. 5′-FDA production in the presence of L-Met and F^−, steps III and I in FIG. 20, respectively; see FIG. 29). Again, FlA^PtaU1 catalytically outperformed all other fluorinases, with a 3-fold higher Vmax value. Although we cannot rule out that FlA^PtaU1 could execute de novo chlorination, it is clear that the 23-residue loop reportedly found in «conventional» fluorinases is not essential for the activity towards F^−.

Series [6] is described as follows: End-point (1 h) transhalogenation assay. It counts as biochemical. Conditions: 5′-FDA production from 5′-CIDA, 1 mM L-Met, 75 mM KF, 37° C. How it is done: as §1, §2
Series [7] is classed as cell-based, Pseudomonas putida KT2440. Conditions: induction with 15 mM NaF, 20 h, 30° C., LC-MS.

B1: DeoD: PNP from E. coli, SEQ ID NO: 15 (protein, listed as Escherichia coli)
chain: MATPHINAEMGDFADVVLMPGDPLRAKYIAETFLEDAREVNNVRGMLGFTGTYKGRKISVMGHGMGIPSCSIYTKELITDFGVKKIIRVGSCGAVLPHVKLRDVVIGMGACTDSKVNRIRFKDHDFAAIADFDMVRNAVDAAKALGIDARVGNLFSADLFYSPDGEMFDVMEKYGILGVEMEAAGIYGVAAEFGAKALTICTVSDHIRTHEQTTAAERQTTFNDMIKIALESVLLGDKE
For the molecule B1, in series [1], the “conversion of 5′-FDA into FAld” value is given as “conversion was higher”.

B2: SalL^Stro: chlorinase from Salinispora tropica CNB-440, accession 2Q6L_A (protein, UniProt A4X3Q0 1-283, looked up)
Adenosyl-chloride synthase: MQHNLIAFLSDVGSADEAHALCKGVMYGVAPAATIVDITHDVAPFDVREGALFLADVPHSFPAHTVICAYVYPETGTATHTIAVRNEKGQLLVGPNNGLLSFALDASPAVECHEVLSPDVMNQPVTPTWYGKDIVAACAAHLAAGTDLAAVGPRIDPKQIVRLPYASASEVEGGIRGEVVRIDRAFGNVWTNIPTHLIGSMLQDGERLEVKIEALSDTVLELPFCKTFGEVDEGQPLLYLNSRGRLALGLNQSNFIEKWPVVPGDSITVSPRVPDSNLGPVLG
On to B2, for which the “activity on F^−” value in series [2] is “inactive on F^−”.

B3: FIA^PtaU1: fluorinase of Methanosaeta sp. PtaU1.Bin055, SEQ ID NO: 1, accession OPY51785.1 (protein, listed as Methanosaeta sp.)
chain: MLQNTKNEYKPRDGGGHRPIIGFMSDLGTEDDSVGICKGVMLGLCPDAVIVDISHSMTPWDIDQGSRLIVDLPKFFPNWTTFATTSYRETGTSARSVAIKLPSGHVYVAPNNGLLTRVIEDHGYVEAYEVTTVGAIPAEPEPTWFSRDMVAYPAAAIAAGFPLENVGRPLNDSEIVRADLPRYTQAEDGIIQGIVTTIDRPFGNIWTNIPRRIIENELRIAYGTNIRVVLDNLLVLEVPFMRTFGDVGLKKPMCYINSRGYFSLAYYGGNLADPYNIRRGMPVKIESITR
modifications: Methanosaeta sp. PtaU1.Bin055
Consider B3, for which, in series [3], the “5′-FDA synthase activity” value is “one of the top performers”. In series [4], the Michaelis-Menten constant (Km) came to 6.99 ± 1.06 µM and the kcat is 0.00683 ± 0.00017 s⁻¹. For the same molecule, the “5′-CIDA accumulation” value in series [5] is reported as “no 5′-CIDA accumulation could be detected”. For the same molecule, the “Vmax, fold higher than all other fluorinases” value in series [6] is listed as 3 fold. Also, in series [7], the “Production of 5′-FDA in vivo” value was “could be detected” and the “intracellular 5′-FDA, fold higher with respect to the other three fluorinase genes” value is 6- to 12 fold.

B4: FIA^MA37: fluorinase of Streptomyces sp. MA37, SEQ ID NO: 30, accession CDH39444.1 (protein, listed as Streptomyces sp.)
chain: MAANGSQRPIIAFMSDLGTTDDSVAQCKGLMHSICPGVTVVDVCHSMTPWDVEEGARYIVDLPRFFPEGTVFATTTYPATGTTTRSVAVRIRQAAKGGARGQWAGSGDGFERADGSYIYIAPNNGLLTTVLEEHGYIEAYEVTSTKVIPANPEPTFYSREMVAIPSAHLAAGFPLAEVGRRLDDSEIVRFHRPAVEISGEALSGVVTAIDHPFGNIWTNIHRTDLEKAGIGQGKHLKIILDDVLPFEAPLTPTFADAGAIGNIAFYLNSRGYLSLARNAASLAYPYNLKAGLKVRVEAR
modifications: Streptomyces sp. MA37
B4: in series [4], the Km amounted to 4.42 ± 0.58 µM and the kcat is 0.00267 ± 0.00017 s⁻¹. Also, the “Production of 5′-FDA in vivo” value in series [7] is recorded as “could be detected”.

(Values after patent publication US20250388936A1, “METHODS AND CELLS FOR THE PRODUCTION OF FLUORINATED COMPOUNDS” (priority 2022, published 2025).)
